Reference: PMC10379010, “Short Peptides of Innate Immunity Protein Tag7 (PGLYRP1) Selectively Induce Inhibition or Activation of Tumor Cell Death via TNF Receptor” (International Journal of Molecular Sciences, 2023)

Molecular target: Hsp70 (recombinant) (UniProt P0DMV8)
Test: MST; sTNFR1 or Hsp70 labeled with Alexa Fluor 633 or 488 (200 nM), 20 min in the dark at room temperature with 16 concentrations of each compound; Monolith NT 115, IR laser power 10%; apparent Kd; triplicate

Kd | Binder
3.15 nM | RSNYVLKG [peptide 17.1B]
1.73 nM | Tag7 protein (PGLYRP1) (natural protein) QETEDPACCSPIVPRNEWKALASECAQHLSLPLRYVVVSHTAGSSCNTPASCQQQARNVQHYHMKTLGWCDVGYNFLIGEDGLVYEGRGWNFTGAHSGHLWNPMSIGISFMGNYMDRVPTPQAIRAAQGLLACGVAQGALRSNYVLKGHRDVQRTLSPGNQLYHLIQNWPHYRSP
222 nM | HRDVQRT [peptide 17.1A]
